According to article PMC7961048 (2021):
Non-standard residues stand in square brackets, D forms with d. No end group written: not given here. *: point of attachment. Biotin = O=C1N[C@H]2[C@H](CS[C@H]2CCCCC(=O)*)N1; pT = C[C@@H](OP(=O)(O)O)[C@H](N)C(=O)O; ttds = NCCCOCCOCCOCCCNC(=O)CCC(=O)*

T1: full-length human 14-3-3γ fused to the C terminus of MBP (human, UniProt P61981 1-247)
T1 chain: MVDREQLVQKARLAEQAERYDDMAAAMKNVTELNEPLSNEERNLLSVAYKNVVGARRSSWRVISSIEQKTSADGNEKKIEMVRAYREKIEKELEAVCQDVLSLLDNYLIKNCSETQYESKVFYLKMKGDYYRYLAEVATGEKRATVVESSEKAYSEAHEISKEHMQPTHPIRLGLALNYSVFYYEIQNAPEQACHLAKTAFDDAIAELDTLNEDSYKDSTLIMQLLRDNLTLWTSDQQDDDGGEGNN

T2: full-length human 14-3-3ζ fused to the C terminus of MBP (human, UniProt P63104 1-245)
T2 chain: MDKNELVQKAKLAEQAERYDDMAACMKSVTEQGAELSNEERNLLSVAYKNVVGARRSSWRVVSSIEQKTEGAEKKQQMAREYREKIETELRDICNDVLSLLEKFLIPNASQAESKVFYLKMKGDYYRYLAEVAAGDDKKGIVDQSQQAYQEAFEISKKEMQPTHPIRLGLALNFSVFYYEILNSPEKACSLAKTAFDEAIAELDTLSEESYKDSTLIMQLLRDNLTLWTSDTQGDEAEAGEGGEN

T3: unfused 14-3-3τ devoid of the flexible C-terminal tail (human)
T3 chain: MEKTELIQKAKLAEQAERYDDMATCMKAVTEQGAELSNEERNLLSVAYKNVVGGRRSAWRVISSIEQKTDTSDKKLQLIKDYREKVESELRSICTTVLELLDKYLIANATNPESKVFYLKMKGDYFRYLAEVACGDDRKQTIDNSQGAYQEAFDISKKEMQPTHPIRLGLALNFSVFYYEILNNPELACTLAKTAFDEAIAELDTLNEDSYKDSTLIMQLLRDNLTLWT

T4: full-length human 14-3-3β fused to the C terminus of MBP (human, UniProt P31946 1-246)
T4 chain: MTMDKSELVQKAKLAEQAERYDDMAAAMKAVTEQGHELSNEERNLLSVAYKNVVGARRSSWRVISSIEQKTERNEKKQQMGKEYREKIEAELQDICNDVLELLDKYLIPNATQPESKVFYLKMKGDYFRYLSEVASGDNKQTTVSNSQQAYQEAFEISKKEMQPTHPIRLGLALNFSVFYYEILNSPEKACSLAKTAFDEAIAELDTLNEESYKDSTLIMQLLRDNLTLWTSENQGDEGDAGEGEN

T5: full-length human 14-3-3ε fused to the C terminus of MBP (human, UniProt P62258 1-255)
T5 chain: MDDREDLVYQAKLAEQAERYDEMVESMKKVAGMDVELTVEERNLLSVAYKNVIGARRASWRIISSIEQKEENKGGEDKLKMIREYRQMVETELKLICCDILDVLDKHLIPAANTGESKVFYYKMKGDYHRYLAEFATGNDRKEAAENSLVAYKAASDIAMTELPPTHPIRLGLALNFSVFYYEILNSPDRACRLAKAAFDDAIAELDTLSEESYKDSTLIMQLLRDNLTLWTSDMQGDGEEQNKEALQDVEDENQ

T6: full-length human 14-3-3τ fused to the C terminus of MBP (human, UniProt P27348 1-245)
T6 chain: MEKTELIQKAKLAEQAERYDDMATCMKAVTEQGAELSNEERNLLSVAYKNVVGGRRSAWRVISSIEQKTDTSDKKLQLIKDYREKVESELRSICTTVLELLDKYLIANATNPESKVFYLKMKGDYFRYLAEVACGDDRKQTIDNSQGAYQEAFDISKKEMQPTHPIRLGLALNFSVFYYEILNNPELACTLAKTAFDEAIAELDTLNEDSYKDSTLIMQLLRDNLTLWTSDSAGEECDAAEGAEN

T7: full-length human 14-3-3σ fused to the C terminus of MBP (human, UniProt P31947 1-248)
T7 chain: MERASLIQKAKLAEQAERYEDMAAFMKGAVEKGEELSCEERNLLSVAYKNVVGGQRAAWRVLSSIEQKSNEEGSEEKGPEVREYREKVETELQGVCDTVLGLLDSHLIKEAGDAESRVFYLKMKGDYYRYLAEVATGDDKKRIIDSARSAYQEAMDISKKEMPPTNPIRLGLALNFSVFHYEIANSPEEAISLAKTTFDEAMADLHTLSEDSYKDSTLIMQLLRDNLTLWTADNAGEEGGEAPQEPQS

T8: full-length human 14-3-3η fused to the C terminus of MBP (human, UniProt Q04917 1-246)
T8 chain: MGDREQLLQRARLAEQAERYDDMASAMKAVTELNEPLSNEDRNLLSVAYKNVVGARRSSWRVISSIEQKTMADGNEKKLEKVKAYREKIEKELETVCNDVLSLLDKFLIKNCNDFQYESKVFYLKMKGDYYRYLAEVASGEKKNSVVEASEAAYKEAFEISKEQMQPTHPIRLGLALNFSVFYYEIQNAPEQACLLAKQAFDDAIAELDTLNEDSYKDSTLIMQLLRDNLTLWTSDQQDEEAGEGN


Key:
[1] = biological target: T1, full-length human 14-3-3γ fused to the …; test: FP; +FSC
[2] = biological target: T2, full-length human 14-3-3ζ fused to the …; test: FP; +FSC
[3] = biological target: T1, full-length human 14-3-3γ fused to the …; test: FP; with FSC
[4] = biological target: T2, full-length human 14-3-3ζ fused to the …; test: FP
[5] = biological target: T3, unfused 14-3-3τ devoid of the flexible …; test: FP
[6] = biological target: T4, full-length human 14-3-3β fused to the …; test: FP
[7] = biological target: T1, full-length human 14-3-3γ fused to the …; test: FP
[8] = biological target: T2, full-length human 14-3-3ζ fused to the …; test: FP
[9] = biological target: T5, full-length human 14-3-3ε fused to the …; test: FP
[10] = biological target: T6, full-length human 14-3-3τ fused to the …; test: FP
[11] = biological target: T7, full-length human 14-3-3σ fused to the …; test: FP
[12] = biological target: T8, full-length human 14-3-3η fused to the …; test: FP

Row | Binder | Kd [1] [µM] | Kd [2] [µM] | Kd [3] [µM] | Kd [4] [µM] | Kd [5] [µM] | Kd [6] [µM] | Kd [7] [µM] | Kd [8] [µM] | Kd [9] [µM] | Kd [10] [µM] | Kd [11] [µM] | Kd [12] [µM]
1 | {Biotin-ttds}-RLQRRRE[pT]QV [HPV18 E6 phospho-PBM peptide p18E6] | 19.3 | 37.3 | 19.3 | 22.4 | 42.3 | 42.2 | 11.1 | 22.4 | 101 | 37.8 | 139 | 23.6
2 | {Biotin-ttds}-SSRTRRE[pT]QL [HPV16 E6 phospho-PBM peptide p16E6] | 91.7 | 161 | 91.7 | 73.6 | 135 | 159 | 37.2 | 73.6 | > 300 | 144 | > 300 | 80.5
